Data as given in publication PMC9282857.
One block for each substance: values may come before it.

Tests used:
Assay in all cases: ITC; Affinity-ITC calorimeter, 25°C; 20 mM Tris-HCl pH 7.5, 150 mM NaCl, 1 mM DTT; independent binding model
[1] = target: Pub1 (287-767) (S. pombe) (UniProt Q92462)
[2] = target: pub1-F576A (S. pombe) (UniProt Q92462)
[3] = target: Rsp5 HECT domain (444-809) (S. cerevisiae) (UniProt P39940)
[4] = target: Rsp5 WW1-HECT domain (224-809) (S. cerevisiae) (UniProt P39940)

fold enhancement of binding against non-conjugated Any1 [1]: 8 fold
Kd [2]: 2300 nM
Substance: Any1 conjugated with K63 di-Ub (from UniProt P0CG63 1-76; P0CG63 1-76) (complex)

Kd [3]: 120000 nM
Substance: K63 di-Ub with a distal end ubiquitin mutant (I44A) (from UniProt P0CG63 1-76; P0CG63 1-76) (complex)

Kd [1]: 2100 nM
Substance: Any1 (17-361) (natural protein)

Substance: Art1 PY motifs containing region (661-710) (domain or fragment)
Kd [4]: 3600 nM
